Measured values from US11260115B1, “Peptides and combination of peptides for use in immunotherapy against CLL and other cancers” (immatics biotechnologies GmbH, priority 2015, dated 2022).

Molecular target: HLA-A*02:01 (Homo sapiens, UniProt P04439, D140Y/D185E/D98H/E176V/E277Q/G131W/G231S/I119V/I121R/I166T/I218V/L300P/L318F/N151K/N90K/P208A/P217A/Q86G/Q94H/R138H/R169H/T345S)
Assay: MHC binding assay (UV-ligand exchange, β2m ELISA, peptide exchange yield)
Details: binding to HLA-A*02:01
How it was run: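 Peptide-HLA-A*02:01 complexes formed by UV-mediated exchange of a photocleavable ligand; exchange yield measured by streptavidin-capture ELISA detecting β2m with HRP anti-β2m, TMB read at 450 nm. Refolded monomer standards 15-500 ng/ml; samples diluted 100-fold.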

Substance	Peptide Exchange (MHC class I binding score, peptide exchange yield)
169 (TLLLGLTEV; listed as Homo sapiens) [compound 169]	“+++” (>50 = +++)
170 (TLTFRVETV; listed as Homo sapiens) [compound 170]	“+++” (>50 = +++)
171 (TLVPPAALISI; listed as Homo sapiens) [compound 171]	“+++” (>50 = +++)
172 (TLYDMLASI; listed as Homo sapiens) [compound 172]	“+++” (>50 = +++)
173 (TVIENIHTI; listed as Homo sapiens) [compound 173]	“++” (>20% = ++)
174 (VLAELPIIVV; listed as Homo sapiens) [compound 174]	“+++” (>50 = +++)
175 (FTVPRVVAV; listed as Homo sapiens) [compound 175]	“+++” (>50 = +++)
176 (VLAEQNIIPSA; listed as Homo sapiens) [compound 176]	“+++” (>50 = +++)
177 (VLDDRELLL; listed as Homo sapiens) [compound 177]	“+++” (>50 = +++)
178 (VLFFNVQEV; listed as Homo sapiens) [compound 178]	“+++” (>50 = +++)
179 (VLLGLEMTL; listed as Homo sapiens) [compound 179]	“+++” (>50 = +++)
180 (LLKDGPEIGL; listed as Homo sapiens) [compound 180]	“++” (>20% = ++)
181 (VLLSIPFVSV; listed as Homo sapiens) [compound 181]	“+++” (>50 = +++)
182 (VLLSVPGPPV; listed as Homo sapiens) [compound 182]	“+++” (>50 = +++)
183 (VLMPTVYQQGV; listed as Homo sapiens) [compound 183]	“+++” (>50 = +++)
184 (VLSHNLYTV; listed as Homo sapiens) [compound 184]	“+++” (>50 = +++)
185 (VMDDQRDLI; listed as Homo sapiens) [compound 185]	“++” (>20% = ++)
186 (VMDPTKILI; listed as Homo sapiens) [compound 186]	“++++” (>75% = ++++)
187 (VMDTHLVNI; listed as Homo sapiens) [compound 187]	“++++” (>75% = ++++)
188 (VMGDIPAAV; listed as Homo sapiens) [compound 188]	“++” (>20% = ++)
189 (VMLEMTPEL; listed as Homo sapiens) [compound 189]	“+++” (>50 = +++)

Substance	Peptide Exchange (MHC class I binding score, peptide exchange yield)
190 (VVMGTVPRL; listed as Homo sapiens) [compound 190]	“+++” (>50 = +++)
191 (YIFDGSDGGV; listed as Homo sapiens) [compound 191]	“+++” (>50 = +++)
193 (YLDLSNNRL; listed as Homo sapiens) [compound 193]	“+++” (>50 = +++)
194 (YLDNVLAEL; listed as Homo sapiens) [compound 194]	“++++” (>75% = ++++)
195 (YLGGFALSV; listed as Homo sapiens) [compound 195]	“++++” (>75% = ++++)
196 (YLLLQTYVL; listed as Homo sapiens) [compound 196]	“+” (>10% = +)
198 (YLTFLPAEV; listed as Homo sapiens) [compound 198]	“+++” (>50 = +++)
199 (YLVELSSLL; listed as Homo sapiens) [compound 199]	“++++” (>75% = ++++)
202 (YVDDVFLRV; listed as Homo sapiens) [compound 202]	“++++” (>75% = ++++)
203 (ALLSSQLAL; listed as Homo sapiens) [compound 203]	“+++” (>50 = +++)
204 (GLLQINDKIAL; listed as Homo sapiens) [compound 204]	“+++” (>50 = +++)
205 (GLSQANFTL; listed as Homo sapiens) [compound 205]	“+++” (>50 = +++)
206 (HMQDVRVLL; listed as Homo sapiens) [compound 206]	“+++” (>50 = +++)
207 (IIADLDTTIMFA; listed as Homo sapiens) [compound 207]	“+++” (>50 = +++)
208 (ILLKTEGINL; listed as Homo sapiens) [compound 208]	“+++” (>50 = +++)
209 (ILQAELPSL; listed as Homo sapiens) [compound 209]	“+++” (>50 = +++)
210 (KLLVQDFFL; listed as Homo sapiens) [compound 210]	“+++” (>50 = +++)
211 (LIDVKPLGV; listed as Homo sapiens) [compound 211]	“+++” (>50 = +++)
214 (RLQELTEKL; listed as Homo sapiens) [compound 214]	“+++” (>50 = +++)
215 (VMQDIVYKL; listed as Homo sapiens) [compound 215]	“+++” (>50 = +++)

Further lines, results first:

Peptide Exchange (MHC class I binding score, peptide exchange yield)	Substance
“+++” (>50 = +++)	216 (WLAGDVPAA; listed as Homo sapiens) [compound 216]
“+++” (>50 = +++)	217 (ALDEPPYLTV; listed as Homo sapiens) [compound 217]
“++” (>20% = ++)	218 (ALGEEWKGYVV; listed as Homo sapiens) [compound 218]
“+++” (>50 = +++)	219 (ALLNLLESA; listed as Homo sapiens) [compound 219]
“+++” (>50 = +++)	220 (ALPEILFAKV; listed as Homo sapiens) [compound 220]
“+” (>10% = +)	221 (ALVSTIIMV; listed as Homo sapiens) [compound 221]
“+++” (>50 = +++)	222 (ALWELSLKI; listed as Homo sapiens) [compound 222]
“+++” (>50 = +++)	223 (ALWVSQPPEI; listed as Homo sapiens) [compound 223]
“+++” (>50 = +++)	224 (AMEALVVEV; listed as Homo sapiens) [compound 224]
“+++” (>50 = +++)	225 (ILQERELLPV; listed as Homo sapiens) [compound 225]
“+++” (>50 = +++)	226 (AMNISVPQV; listed as Homo sapiens) [compound 226]
“+++” (>50 = +++)	227 (FLAEASVMTQL; listed as Homo sapiens) [compound 227]
“+++” (>50 = +++)	228 (FLGGLSPGV; listed as Homo sapiens) [compound 228]
“++++” (>75% = ++++)	229 (FLLNLQNCHL; listed as Homo sapiens) [compound 229]
“+++” (>50 = +++)	230 (FLQDSKVIFV; listed as Homo sapiens) [compound 230]
“+++” (>50 = +++)	231 (FLYIRQLAI; listed as Homo sapiens) [compound 231]
“++++” (>75% = ++++)	232 (FMHQIIDQV; listed as Homo sapiens) [compound 232]
“++” (>20% = ++)	233 (GIIDINVRL; listed as Homo sapiens) [compound 233]
“++” (>20% = ++)	234 (GLDDAEYAL; listed as Homo sapiens) [compound 234]
“+++” (>50 = +++)	235 (GLDDLLLFL; listed as Homo sapiens) [compound 235]
“+++” (>50 = +++)	236 (GLLESGRHYL; listed as Homo sapiens) [compound 236]
“++++” (>75% = ++++)	237 (GLQENLDVVV; listed as Homo sapiens) [compound 237]
“+++” (>50 = +++)	238 (GLVETELQL; listed as Homo sapiens) [compound 238]
“+++” (>50 = +++)	239 (ILAGEMLSV; listed as Homo sapiens) [compound 239]
“+++” (>50 = +++)	241 (ILGDILLKV; listed as Homo sapiens) [compound 241]
“+++” (>50 = +++)	242 (ILLGIQELL; listed as Homo sapiens) [compound 242]
